The values that follow come from patent US9422450B2, “Surface coated structures and methods” (ARCH BIOPHYSICS, INC., priority 2009, dated 2016).

This series can be described thus: Corrosion resistance (Icorr, Ecorr, corrosion rate, Rp) of coated stainless steel. It counts as physicochemical. The note with it: pilin conjugates on stainless steel.

Bridges are numbered along the chain shown (N, C = ends). Where no end group is shown, it is not given here.

Consider “E-PAK: pilin peptide conjugated to an E-coil (negatively charged leucine zipper) peptide (DGLWKCTSDQDEQFIPKGCSR; disulfide 6-19; also: conjugated to E-coil peptide)”, for which, under “Unmodified 0.0547”, the “Corrosion Rate” value was determined as 0.1981 mpy. Further, where the note is “Unmodified 4.2”, the Ecorr is given as 87.2 mV. The Rp (Unmodified 303.141) was determined as 121.722 Ohms/cm^2. Besides, the Icorr (Unmodified 802) is on record as 1940 nAmps.
